The assay deals with Bio-His-FIKK13 (P. falciparum). Put plainly: SPR. (In SPR one partner is held on a chip, and binding of the other changes the refractive index at the surface.)

B1: FIKK13_4 (peptide)
peptide: YPLRFLSKYHCG
On to B1, for which the Kd (as a rule, a measure of binding affinity in units of concentration) is 17 nM.

Source of the values: publication doi:10.1101/2024.02.22.581535.
